# B1: codeinone reductase COR1.3 isoform (enzyme, Papaver somniferum)
# chain: MESNGVPMITLSSGIRMPALGMGTAETMVKGTEREKLAFLKAIEVGYRHFDTAAAYQSEECLGEAIAEALQLGLIKSRDELFITSKLWCADAHADLVLPALQNSLRNLKLDYLDLYLIHHPVSLKPGKFVNEIPKDHILPMDYKSVWAAMEECQTLGFTRAIGVCNFSCKKLQELMAAAKIPPVVNQVEMSPTLHQKNLREYCKANNIMITAHSVLGAICAPWGSNAVMDSKVLHQIAVARGKSVAQVSMRWVYQQGASLVVKSFNEGRMKENLKIFDWELTAENMEKISEIPQSRTSSADFLLSPTGPFKTEEEFWDEKD
# modifications: intermolecular disulfide bond between Cys-220 of each protomer
# notes: codeinone reductase isoform COR1.3, Papaver somniferum (AAF13738; Q9SQ68.1); The methods for size-exclusion chromatography say only 'purified COR1.3'; also called apo-COR
# Molecular target: the molecule itself
# Experiment: SEC; Superdex 200 (2.4 ml), 25 mM Tris-HCl pH 7.5, 150 mM KCl, 0.5 mM EDTA; COR1.3 0.5 mg/ml diluted in running buffer and incubated overnight at room temperature (oxidizing conditions); also run with 1 mM DTT in the buffer (reducing conditions: dimer destabilized)
protein,measurement,value
B1,stoichiometry N,2

# Source: article PMC8524200, “Structural studies of codeinone reductase reveal novel insights into aldo-keto reductase function in benzylisoquinoline alkaloid biosynthesis” (The Journal of Biological Chemistry, 2021)
